Experimental data reported in FireProtDB (doi:10.1021/bi020461s).

B1: Glutamate dehydrogenase, P96110 (parent)
chain: MPEKSLYEMAVEQFNRAASLMDLESDLAEVLRRPKRVLIVEFPVRMDDGHVEVFTGYRVQHNVARGPAKGGIRYHPDVTLDEVKALAFWMTWKTAVMNLPFGGGKGGVRVDPKKLSRNELERLSRRFFSEIQVIIGPYNDIPAPDVNTNADVMAWYMDTYSMNVGHTVLGIVTGKPVELGGSKGREEATGRGVKVCAGLAMDVLGIDPKKATVAVQGFGNVGQFAALLISQELGSKVVAVSDSRGGIYNPEGFDVEELIRYKKEHGTVVTYPKGERITNEELLELDVDILVPAALEGAIHAGNAERIKAKAVVEGANGPTTPEADEILSRRGILVVPDILANAGGVTVSYFEWVQDLQSFFWDLDQVRNALEKMMKGAFNDVMKVKEKYNVDMRTAAYILAIDRVAYATKKRGIYP

Variants of: B1
Conditions: Thermotoga maritima (strain ATCC 43589 / DSM 3109 / JCM 10099 / NBRC 100826 / MSB8), pH 7, CD, sodium phosphate 20 mM, reversible: yes, structure 1B26, whole UniProt chain shown

Variant	ddG of mutation (higher = less stable) (20 °C, GdnHCl) [kcal/mol]	denaturant m value (20 °C, GdnHCl) [kcal/mol/M]	denaturant midpoint (higher = more stable) (20 °C, GdnHCl) [M]	unfolding free energy (20 °C, GdnHCl) [kcal/mol]	ddG of mutation (higher = less stable) (20 °C, Urea) [kcal/mol]	denaturant m value (20 °C, Urea) [kcal/mol/M]	denaturant midpoint (higher = more stable) (20 °C, Urea) [M]	unfolding free energy (20 °C, Urea) [kcal/mol]	ddG of mutation (higher = less stable) (69.5 °C, Thermal) [kcal/mol]	Tm (Thermal) [°C]	change of melting temperature, mutant - wild type (higher = more stable) (Thermal) [°C]	unfolding enthalpy (van 't Hoff) (Thermal) [kcal/mol]
MPEKSLYEMAVEQFNRAASLMDLESDLAEVLRRPKRVLIVEFPVRMDDGHVEVFTGYRVQHNVARGPAKGGIRYHPDVTLDEVKALAFWMTWKTAVMNLPFGGGKGGVRVDPKKLSRNELERLSRRFFSEIQVIIGPYNDIPAPDVNTNADVMAWYMDTYSMNVGHTVLGIVTGKPVELGGSKGREEATGAGVKVCAGLAMDVLGIDPKKATVAVQGFGNVGQFAALLISQALGSKVVAVSDSRGGIYNPEGFDVEELIRYKKEHGTVVTYPKGERITNEELLELDVDILVPAALEGAIHAGNAERIKAKAVVEGANGPTTPEADEILSRRGILVVPDILANAGGVTVSYFEWVQDLQSFFWDLDQVRNALEKMMKGAFNDVMKVKEKYNVDMRTAAYILAIDRVAYATKKRGIYP [R191A E232A]	0.86	3.08	1.44	4.26	0.53	1.53	2.96	4.32	0.15	68.5	-1	44.6
MPEKSLYEMAVEQFNRAASLMDLESDLAEVLRRPKRVLIVEFPVRMDDGHVEVFTGYRVQHNVARGPAKGGIRYHPDVTLDEVKALAFWMTWKTAVMNLPFGGGKGGVRVDPKKLSRNELERLSRRFFSEIQVIIGPYNDIPAPDVNTNADVMAWYMDTYSMNVGHTVLGIVTGKPVELGGSKGREEATGAGVKVCAGLAMDVLGIDPKKATVAVQGFGNVGQFAALLISQELGSKVVAVSDSRGGIYNPEGFDVEELIRYKKEHGTVVTYPKGERITNEELLELDVDILVPAALEGAIHAGNAERIKAKAVVEGANGPTTPEADEILSRRGILVVPDILANAGGVTVSYFEWVQDLQSFFWDLDQVRNALEKMMKGAFNDVMKVKEKYNVDMRTAAYILAIDRVAYATKKRGIYP [R191A]	0.41	2.63	1.59	4.71	0.32	1.7	3.1	4.53	0.34	67.3	-2.2	49.5
MPEKSLYEMAVEQFNRAASLMDLESDLAEVLRRPKRVLIVEFPVRMDDGHVEVFTGYRVQHNVARGPAKGGIRYHPDVTLDEVKALAFWMTWKTAVMNLPFGGGKGGVRVDPKKLSRNELERLSRRFFSEIQVIIGPYNDIPAPDVNTNADVMAWYMDTYSMNVGHTVLGIVTGKPVELGGSKGREEATGAGVAVCAGLAMDVLGIDPKKATVAVQGFGNVGQFAALLISQALGSKVVAVSDSRGGIYNPEGFDVEELIRYKKEHGTVVTYPKGERITNEELLELDVDILVPAALEGAIHAGNAERIKAKAVVEGANGPTTPEADEILSRRGILVVPDILANAGGVTVSYFEWVQDLQSFFWDLDQVRNALEKMMKGAFNDVMKVKEKYNVDMRTAAYILAIDRVAYATKKRGIYP [R191A E232A K194A]	-0.03	2.72	1.74	5.15	-0.04	1.42	3.35	4.89	-0.2	70.8	1.3	50.6
MPEKSLYEMAVEQFNRAASLMDLESDLAEVLRRPKRVLIVEFPVRMDDGHVEVFTGYRVQHNVARGPAKGGIRYHPDVTLDEVKALAFWMTWKTAVMNLPFGGGKGGVRVDPKKLSRNELERLSRRFFSEIQVIIGPYNDIPAPDVNTNADVMAWYMDTYSMNVGHTVLGIVTGKPVELGGSKGREEATGRGVAVCAGLAMDVLGIDPKKATVAVQGFGNVGQFAALLISQELGSKVVAVSDSRGGIYNPEGFDVEELIRYKKEHGTVVTYPKGERITNEELLELDVDILVPAALEGAIHAGNAERIKAKAVVEGANGPTTPEADEILSRRGILVVPDILANAGGVTVSYFEWVQDLQSFFWDLDQVRNALEKMMKGAFNDVMKVKEKYNVDMRTAAYILAIDRVAYATKKRGIYP [K194A]	-0.98	2.74	2.06	6.1	–	–	–	–	-0.23	71	1.5	53.8
